The series concerns the target Thrombin (UniProt P00734;P00734 328-363;364-622). Nature of the series: ion current rectification nanopipette aptasensor.

B1: N protein aptamer (ssDNA)
DNA: GCTGGATGTCGCTTACGACAATATTCCTTAGGGGCACCGCTACATTGACACATCCAGC
modifications: 5'-NH2
B1: the binding result is recorded as “no binding”.

The record behind these values is publication PMC9700395.
